Experimental data published in US12491161B2, “Single vial vaccine formulations” (priority 2013, dated 2025).

What was measured:
[1] = Emulsion particle size and polydispersity by dynamic light scattering (DLS); type: physicochemical
Method: Emulsion particle size, polydispersity (PdI), and zeta potential were evaluated using dynamic light scattering (DLS) on a Malvern (Worcestershire, UK) Nano-ZS. Measurements were performed generally as previously described (Fox et al., 2011, Pharmaceutical Development and Technology, 16(5):511-519). Briefly, all DLS size measurements were performed in 10^−2 dilutions into 20 nm filtered water (described above) and evaluated in triplicate on single aliquots. For zeta-potential measurements, the same aliquot was evaluated using triplicate measurements and an automatic software determination of the measurement duration between 20 and 40 runs.
Particle size, polydispersity, and zeta potential measurements were made as described previously (Fox et al., 2008, Colloids and Surfaces B: Biointerfaces, 65:98-105) using a Malvern (Worcestershire, UK) Nano-ZS after 100 times dilution into ultrapure water filtered through a 20 nm Whatman (Maidstone, Kent, UK) Anotop plus filter. Nanoparticle tracking analysis was performed with a NanoSight LM10 (Amesbury, UK) with a 405 nm laser and a Hamamatsu Orca Flash 2.8 CMOS camera (Hamamatsu, JP). Samples were diluted 1:105 in 20-nm filtered ultrapure water in three steps. Each sample was diluted and analyzed four times, independently, to account for dilution error. Ninety seconds of video were recorded for each sample with optimized shutter and gain settings. The camera histogram gating was adjusted to maximize sensitivity. Data analysis was performed using NanoSight NTA 2.3 software (Wiltshire, UK) in standard mode.

[2] = Stability under continuous cold-chain maintenance; type: physicochemical; conditions: 4° C.

B1: ID93: recombinant tandem fusion protein antigen of Mtb Rv3619, Rv1813, Rv3620 and Rv2608 (SEQ ID NO: 1 or 2) (protein)
chain: MGSSHHHHHHSSGLVPRGSHMTINYQFGDVDAHGAMIRAQAGSLEAEHQAIISDVLTASDFWGGAGSAACQGFITQLGRNFQVIYEQANAHGQKVQAAGNNMAQTDSAVGSSWAGTHLANGSMSEVMMSEIAGLPIPPIIHYGAIAYAPSGASGKAWHQRTPARAEQVALEKCGDKTCKVVSRFTRCGAVAYNGSKYQGGTGLTRRAAEDDAVNRLEGGRIVNWACNELMTSRFMTDPHAMRDMAGRFEVHAQTVEDEARRMWASAQNISGAGWSGMAEATSLDTMTQMNQAFRNIVNMLHGVRDGLVRDANNYEQQEQASQQILSSVDINFAVLPPEVNSARIFAGAGLGPMLAAASAWDGLAEELHAAAGSFASVTTGLAGDAWHGPASLAMTRAASPYVGWLNTAAGQAAQAAGQARLAASAFEATLAATVSPAMVAANRTRLASLVAANLLGQNAPAIAAAEAEYEQIWAQDVAAMFGYHSAASAVATQLAPIQEGLQQQLQNVLAQLASGNLGSGNVGVGNIGNDNIGNANIGFGNRGDANIGIGNIGDRNLGIGNTGNWNIGIGITGNGQIGFGKPANPDVLVVGNGGPGVTALVMGGTDSLLPLPNIPLLEYAARFITPVHPGYTATFLETPSQFFPFTGLNSLTYDVSVAQGVTNLHTAIMAQLAAGNEVVVFGTSQSATIATFEMRYLQSLPAHLRPGLDELSFTLTGNPNRPDGGILTRFGFSIPQLGFTLSGATPADAYPTVDYAFQYDGVNDFPKYPLNVFATANAIAGILFLHSGLIALPPDLASGVVQPVSSPDVLTTYILLPSQDLPLLVPLRAIPLLGNPLADLIQPDLRVLVELGYDRTAHQDVPSPFGLFPDVDWAEVAADLQQGAVQGVNDALSGLGLPPPWQPALPRLFST
- effect of heat stress on particle size ([1]; 50° C. for 30 days): reduced the average particle size observed; however, this was not statistically significant
- effect of heat stress on polydispersity ([1]; 50° C. for 30 days, liquid or lyophilized formats): did not affect the polydispersity
- particle size (Z-average diameter) ([1]; unstressed): approximately 70 nm
- stability under continuous cold-chain maintenance [2]: stable for more than a year
